Test results from US20240309104A1 (PROMETHEUS BIOSCIENCES, published 2024).
“And” between values parts separate entries of the source, which are not always exact repeats. Identical values can stand only once.

How the values were obtained:
Assay in all cases: cell-based or functional assay
[1] = target: T1, TL1A produced by PBMCs in cynomolgus monkey whole blood (cynomolgus monkey, UniProt G7PRK8 72-251)
T1 sequence: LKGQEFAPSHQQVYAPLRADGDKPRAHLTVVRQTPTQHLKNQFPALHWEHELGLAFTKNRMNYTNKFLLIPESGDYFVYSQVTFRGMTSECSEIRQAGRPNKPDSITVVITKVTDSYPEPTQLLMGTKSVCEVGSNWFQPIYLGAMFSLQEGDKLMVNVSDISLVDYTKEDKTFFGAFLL

[2] = target: T2, recombinant cynomolgus monkey TL1A protein (cynomolgus monkey, UniProt G7PRK8 72-251)
T2 sequence: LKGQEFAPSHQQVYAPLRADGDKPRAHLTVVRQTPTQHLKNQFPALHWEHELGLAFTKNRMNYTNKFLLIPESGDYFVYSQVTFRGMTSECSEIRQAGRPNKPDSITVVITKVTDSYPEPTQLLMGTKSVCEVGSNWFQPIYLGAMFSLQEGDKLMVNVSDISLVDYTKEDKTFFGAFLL

[3] = target: T3, recombinant human TL1A protein (human, UniProt O95150 72-251)
T3 sequence (looked up): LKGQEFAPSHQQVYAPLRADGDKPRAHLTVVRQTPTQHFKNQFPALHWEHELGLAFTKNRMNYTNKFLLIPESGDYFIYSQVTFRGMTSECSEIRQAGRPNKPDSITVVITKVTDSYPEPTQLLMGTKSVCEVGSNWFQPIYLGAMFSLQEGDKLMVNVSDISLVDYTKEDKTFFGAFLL

B1: anti-TL1A antibody A219 (antibody, V domains shown)
VH: QVQLVQSGAEVKKPGASVKVSCKASGFDIQDTYMHWVKQRPGQGLEWMGRIDPASGHTKYDPKFQVRVTITRDTSTSTVYLELSSLRSEDTAVYYCARSGGLPDVWGQGTTVTVSS
VL: EIVLTQSPGTLSLSPGERATLSCRASSSVSYMYWYQQKPGQAPRPLIYATSNLASGIPDRFSGSGSGTDFTLTISRLEPEDFAVYYCQQWEGNPRTFGGGTKLEIK
inhibition of the IFN-γ response in monkey whole blood (mean IC50) [1]: 1.54 nM and 289 ng/mL | inhibition of TL1A-induced caspase activation in TF-1 cells (IC50) [2]: 0.59 nM | inhibition of TL1A-induced caspase activation in TF-1 cells (IC50) [3]: 0.27 nM
